Test results taken from the DeepSol protein solubility set.

assay: soluble on expression in E. coli; label from the status in PepcDB or PDB records

Sequence	soluble on expression in E. coli
MSLTNQVTYLFFHGMKQISEHLFTTEEQAIIARSKAEGSYMKAPNGQATNLNKKQWAQVRTRAFREWFGDWENNPDEASKVRDANGEPLVVYHGTPISRDQAADRSKFRIADDWEIQTINAPFHTFRGGAYNGLIFTSLTEEKARSIGETRSMSIPDSEDGREQWTTDSYVYDLFVNARQPFDVKNPNAVKDILDALEGQLTAYDFYLGMEVPVSRKEAEKILEGGNSWRVVETPSMQEIIRSRGYDAIHALDEGVQYMAVFAPNQLKASGKYLYSERNTGVFSPGNNDIRFREVHHGVPASFTGYRSMKTETVRNDNIPAVLAALREKLEDTEQEWQDRILDYIAENYPTQTTVSAQTRSPEGLKEREAMKKDKTLRKMKEEAVAALNAADEKVMEAFKKENGDILFREVKENDGGKSLVGLHNISEEKLLKALKLGGLANPSAAVIDIARQSHEGYGEISLILPSSMIDKRTGRNAGTFSGDAWTPVYPQIERQFSGDGSGRVRDAISRLPQEMQPNVRSAWNSYMDGRDEGSAFAYQFLYERGEAPEFRKIEPLFGEHLRNRISAIDALDDYDERNTALLEVYIEENFGGDQTKFKDYIETRKRVLQDKEGHHHHHH	not soluble
MSLTPDAQVATAQRDDQALISEGKDLYDVACITCHGVNLQGVEDRGPSLVGVGEGAVYFQVHSGRMPILRNEAQAERKAPRYTEAQTLAIAAYVAANGGGPGLVYNEDGTLAMEELRGENYDGQITSADVARGGDLFRLNCASCHNFTGRGGALSSGKYAPNLDAANEQEIYQAMLTGPQNMPKFSDRQLSADEKKDIIAFIKSTKEGHHHHHH	soluble
MSLTPLMVNGILGESVTLPLEFPAGEKVNFITWLFNETSLAFIVPHETKSPEIHVTNPKQGKRLNFTQSYSLQLSNLKMEDTGSYRAQISTKTSAKLSSYTLRILRQLRNIQVTNHSQLFQNMTCELHLTCSVEDADDNVSFRWEALGNTLSSQPNLTVSWDPRISSEQDYTCIAENAVSNLSFSVSAQKLCE	soluble
MSLTPSMRRTRIVCISDTHNCQVKLPEGDVLIHAGDLTNQGSHAELAKTVAWLEKQDFEAKIVIAGNHDITLDPEFYAEHGLYFHNKNPQSHDECLRLFTSSPSITYLSHGSANISLTSPSGPRTHFKVFGSPYSPRHGLWAFYYDAPQNPSNWSDLTSLWESIPLDTDIVVTHTPPRMHCDETDERRATGCEALRQALWRVRPQLVVCGHIHDGRGAERVMWDLNCRNVAYQEESVVRWEDPGQGNNKTCLVDLTGKKAPSEGHHHHHH	soluble
MSLTPWLSIVGISEEGWLALTPIAQQCILQADILVGSDRHFDLLPSLPGAEQWRWGSPFSATITQILERRGQSICILASGDPMCYGVGSLLAQRLPLTELQILPAPSAFSLACSRLGWALPEVETLSLCGRDPALLNALLYPGAKILALSADRSTPATIAEQLCQQGWGSSRLTVLEHLGGPKERKISEIAEHWSQPTIASLNTVAIECHARDRDLIVPPRLTGLPDAAYHHDGQLTKREVRAITLAALAPLPGQLLWDVGAGCGSIGIEWMRSDRRCRAIAIEQHPQRLQIITQNAIALGVPNLQVVAGSAPATLSGLPQPDAIFIGGGVTAPGVLDQCWQALPMGGRLVVNAVTLESEQVVLAGQQRWGGDLIRVAVQRAEPIGRFLGWKSLAPITQWTVKKTALEHHHHHH	soluble
MSLTQTILVIDDDAAVRGSFQLVLGEIGCVVRVAEDGLQGIAMAREERPDLIFLDLKMPGIDGVETMRRLLAMDPTFNIYIVTAFSQEYLDDLKQAQAEGMTFQLANKPLSSTQIRHIARSVRSLSNVSKDNHRISLTLYVVSVNPEIQKVVDQLSNVLAATYRAGFWVLNVVEVLGMPEKALEKDVFATPMLVREVPEPVLKLLGDLSRMHSVLSAITAENGHGAGTEGHHHHHH	soluble
MSLTQYWLGLDCGGSWLKAGLYDREGREAGVQRLPLCALSPQPGWAERDMAELWQCCMAVIRALLTHSGVSGEQIVGIGISAQGKGLFLLDKNDKPLGNAILSSDRRAMEIVRRWQEDGIPEKLYPLTRQTLWTGHPVSLLRWLKEHEPERYAQIGCVMMTHDYLRWCLTGVKGCEESNISESNLYNMSLGEYDPCLTDWLGIAEINHALPPVVGSAEICGEITAQTAALTGLKAGTPVVGGLFDVVSTALCAGIEDEFTLNAVMGTWAVTSGITRGLRDGEAHPYVYGRYVNDGEFIVHEASPTSSGNLEWFTAQWGEISFDEINQAVASLPKAGGDLFFLPFLYGSNAGLEMTSGFYGMQAIHTRAHLLQAIYEGVVFSHMTHLNRMRERFTDVHTLRVTGGPAHSDVWMQMLADVSGLRIELPQVEETGCFGAALAARVGTGVYHNFSEAQRDLRHPVRTLLPDMTAHQLYQKKYQRYQHLIAALQGFHARIKEHTLEGHHHHHH	soluble
MSLTRDGSPWIPIAGEMHYSRIAAERWDTELAKMAAAGIDVVSTYVFWNHHEEREGEWDFSGNRNVRRFVELCARHGLHVIVRLGPFCHGEVRNGGLPDWLYGKSYEVRSLDAGFLDAVRGLYAHIAQQLRGLYFKDGGPIIAAQVDNEYMASSAPWEMTTGISREWVPSGHDGAGYLERLRDIAIEEGIDPPMFTCTGWQSPVPDDMLPLWGGYAYRPWLFYDGVGAEGMTEHPATDEYRYRRLHGSSTSDGFDPPYDPDSRPYACCEMGGGMFNSYDYRFVLPKRSVDAMANIKLGSGCDFLGYYMFHGGTNPKGAAGFLNEGQTPKRSYDFQAPLGKFGQVRESYRRLRTLHEFVKAFGPELAGMPVSLQDGQDRIDPSDSETLRYAVRSDGERGFVSIDNFQDHARVPSRHGEQIDVTTGTGERIRFTGIGLAEGENCILPFNMDLDGVRLVRANLQPVTVLRVPGRPFRTFVFLKPDGMDELTFHFEGDIQDVTVGKADFERFMVRDAAEIVCVTRALAGRMTVLDGGLAFVDDDNALLYEDGDGWTLESPRAENGIAAYPEGLLGSPRPVEPVSVYARMRRLHADRYEIALPAGMGRLFRDQRQVADVMLNIAYQGDIGWLFCGDVLIADNFCNGETWQVGLRDYADAIDAAGGKLTLVVTPLRRGVRVKVTSSMAARLEQSDACVADVTDVYATPVYHMPVGEGHHHHHH	soluble
MSLTRFPVTALRSVDLGTPDLARSEAFYREVWGLERVGTAGGVVYLRATGRDHHVVALHRSARTELRAVTFRVADADDFEAISRNAIEQGATLIAAPAANMAPDGGTIMTLRSPEGGLLRFVHGDIRHDARPSRPELPERLAHVNLNSTDVDRTAAFYARALGFKLTDRSAAMAFVRCNSDHHAVVIAAAKVNGLNHVAFLMPTWEGVMRGSGRMIDAGYPIAWGVGRHGPGDNVFAYFIDPVGTVIEYTAEVLQVDDDYVVRGPEHWVWPPGRTDQWGIAPPKAEHVKAAQLAVGFAAEGHHHHHH	soluble
MSLTRISELPPQIRQEIEQLDQYIQKQVQISHHLKADTIDHDELIDSIPRDVAYLLKSESATSQYLKQDLKKISSFKSLIDEDLLDTQTFSVLLQQLLTPGSKISSNDLDKFFQKKIHLYEKKLEDYCRILSDIETAVNGIDTDLFGAPNNPNSTAITADLGSSEAENLLQLKTGLAAIVSTVIEEFTLFMDIAERIAVLHQKTKTLASLSEGHHHHHH	soluble
